± gives the half width of the 95% confidence interval.
How the values were obtained:
[1] = folding stability dG unfold from trypsin proteolysis; higher = more stable
Method in brief: (§1)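 Sequencing followed digestion of designed mini-proteins with trypsin and chymotrypsin, each at 11 concentrations in threefold dilutions together with a no-protease condition. The mini-proteins were under 80 residues, had no cysteine, sat in a PA-tagged cDNA display construct, and were kept only if AlphaFold2 dimer inter-PAE was above 15. From the counts, Bayesian fitting gave K50, and unfolding free energy was derived against a sequence-predicted unfolded-state K50 and a shared folded-state K50, per protease or combined.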

[2] = folding stability dG unfold (combined trypsin and chymotrypsin); higher = more stable
Method in brief: as §1

[3] = folding stability dG unfold from chymotrypsin proteolysis; higher = more stable
Method in brief: as §1

| Sequence | folding stability dG unfold [1] | folding stability dG unfold [2] | folding stability dG unfold [3] |
| --- | --- | --- | --- |
| SAGGLLPLLKEIAEALGLPEIESLSFDPETGELTLRFRGPEPYLLRIPFRPVKDGGIPLDIEVYPTDLSAGG [r13_410_TrMRF] | 2.86 ± 0.06 kcal/mol | 3.02 ± 0.056 kcal/mol | 3.006 ± 0.03 kcal/mol |
| SAGGSAGGSDKIVERLQKRFPNVRISNIQPTPDGVTIQIENPDGKEFTIPYDELEKHGIEIEPSAGGSAGGS [r12_3_TrROS] | 0.217 ± 0.17 kcal/mol | 0.456 ± 0.16 kcal/mol | 0.595 ± 0.085 kcal/mol |
| SAGGSAGGSAGGWNYIIFTIRYEFEYKDPNGKTMKHEVEITIIIPIPPIKRDEDGKYKLSAGGSAGGSAGGS [r10_168_TrROS] | 2.31 ± 0.17 kcal/mol | 2.79 ± 0.28 kcal/mol | 3.35 ± 0.17 kcal/mol |
| SAGGSAGGSAGGSLTFDGPDTKIEVYELDDDLLPVTIYTDSAPRTILVPPKEFLKLLASSAGGSAGGSAGGS [r4_346_TrMRF] | 0.0915 ± 0.071 kcal/mol | 0.367 ± 0.089 kcal/mol | 0.449 ± 0.085 kcal/mol |
| SAGGSAGGSAGMKEGEIVEVTVPIPENGEEIKVKVVAPPSLTEEEARALAEEKAKEIYEKSAGGSAGGSAGG [r11_355_JUSTAS] | 0.0651 ± 0.062 kcal/mol | 0.595 ± 0.077 kcal/mol | 0.99 ± 0.04 kcal/mol |
| SENWEPEPITFPDGITIWVMPDYGMIDIIDPDKGTFEMFMIRVDPNGKPEINPLTFKLDPPNGKIKDITPSA [r9_122_TrROS] | 0.657 ± 0.2 kcal/mol | 0.49 ± 0.26 kcal/mol | 0.572 ± 0.91 kcal/mol |
| SAGGSAGGSAGSNKVVTFVPRDPATGAPLGERPIPINSSSGSEIESIKKELPPEVVEIVESAGGSAGGSAGG [r17_339_JUSTAS] | 0.605 ± 0.044 kcal/mol | 1.01 ± 0.066 kcal/mol | 1.15 ± 0.02 kcal/mol |
| SAGGSPDIKFNEVKVELPTAETEAEFEKNTYKVEVPAPPELDITTTTTLTTSSGSTTTTTSTSPLELPSAGG [r13_191_JUSTAS] | 0.0505 ± 0.06 kcal/mol | -0.304 ± 0.11 kcal/mol | -1.11 ± 0.79 kcal/mol |
| MPNLKPALLVIPMKVESIEEAEEKVLAFAEELAEAFPNIKKIEVEILEIDEENGIVIAKITVEAEDSALDAS [r1_52_TrMRF] | 2.12 ± 0.1 kcal/mol | 2.13 ± 0.19 kcal/mol | 2.34 ± 0.051 kcal/mol |
| SAGGSAGGSAGGPWYVRIEYTPPNGNKETFIIPSPEEIDEWAEPFGVPVKIEPIPPGDPISAGGSAGGSAGG [r7_456_TrROS] | 0.801 ± 0.02 kcal/mol | 0.736 ± 0.091 kcal/mol | 0.604 ± 0.1 kcal/mol |
| SAGGSAGGSAGGGMSLSYTVTTSTTVVPAPDGVTVLHPTTTTFPGGPTTTTTTVTVEPAGSAGGSAGGSAGG [r7_701_JUSTAS] | 0.872 ± 0.021 kcal/mol | 0.409 ± 0.051 kcal/mol | -0.855 ± 0.12 kcal/mol |
| SAGGSAGGSATVTVTETNEDGEETTTEVEVFEVKPPPAPVLKVEAVIDPETNELVDVKVELFASAGGSAGGS [r12_539_TrROS_Hall] | 1.36 ± 0.1 kcal/mol | 0.784 ± 0.14 kcal/mol | 0.201 ± 0.14 kcal/mol |
| SAGGSAGGSMKVSPASRSEFDGSRVITITVTKEGTGTTTDITIPFSPDEPDVDEVAKAIAESLSAGGSAGGS [r12_415_JUSTAS] | 0.0886 ± 0.12 kcal/mol | 0.838 ± 0.091 kcal/mol | 1.12 ± 0.023 kcal/mol |
| SAGGSAATTVAVNGKEITIVSVDPATGKVTIAVPENVPESVIQAAKDLLEAQGLPVEVKRVPPEKLSAGGSA [r15_570_JUSTAS] | 1.42 ± 0.044 kcal/mol | 1.33 ± 0.05 kcal/mol | 1.3 ± 0.013 kcal/mol |
| SAGGSAMKKVTVTVKFPDGTTYTFDMDTESEEEFEKKVREEALKRFPDIPLEDVEVTEVVVTPELLSAGGSA [r15_220_JUSTAS] | 2.3 ± 0.16 kcal/mol | 2.33 ± 0.12 kcal/mol | 2.38 ± 0.039 kcal/mol |
| SAGGSKMEIVKYDKEKNVIYVRVDGKTYTFPLDEITEVTFDEETGELTIKVNGKTYTIKLDLPDLVSAGGSA [r2_48_TrROS_Hall] | 3.22 ± 0.16 kcal/mol | 4.11 ± 0.29 kcal/mol | 4.29 ± 0.12 kcal/mol |
| SAGGSKTITIELTTKDGYKFTITVTEKDDKVTANITFLDPTVTPEKIDETIATLEKLAKEAGKNLTISSAGG [r13_774_TrMRF] | 2.62 ± 0.11 kcal/mol | 3.36 ± 0.095 kcal/mol | 3.66 ± 0.088 kcal/mol |
| SAGGSAGGSTLTVEIQITDADGNTLTAKVTLTFEPAPPPPPPPTVERRTTTVDGKTVTEYRRLSAGGSAGGS [r12_128_TrROS_Hall] | 0.631 ± 0.18 kcal/mol | 0.969 ± 0.13 kcal/mol | 1.04 ± 0.22 kcal/mol |
| SAGSPATLRAQAEEEARALAAELGAEVTVDVTVEPVPGEYVVRTTATLTFPGGEVRTLPRTTRVPRSLVSAG [r5_609_JUSTAS] | 0.671 ± 0.071 kcal/mol | 0.953 ± 0.08 kcal/mol | 1.09 ± 0.08 kcal/mol |
| SAGGKKIVIFIGPPEQMDRMQEQHPDEPVIPIPRDALQDPEPAKNLIKELQEKGKDVEIYLFKDFKPSAGGS [r8_376_TrROS] | -0.176 ± 0.31 kcal/mol | -0.239 ± 0.17 kcal/mol | -0.287 ± 0.4 kcal/mol |
| SAGGSAGGSMKVVKILSIETKAEKDEEVLTIPVLDPANGKVITLTVSPEVAKTITTDDEIELLSAGGSAGGS [r12_382_JUSTAS] | 0.177 ± 0.14 kcal/mol | 0.47 ± 0.14 kcal/mol | 0.517 ± 0.12 kcal/mol |
